± gives the standard deviation of the averaged measurements.
Tested on: Saccharomyces cerevisiae
Test: protein stability index of tFT-peptide fusion (C-terminal peptide) (PSI (0-1 scale)); higher = more stable (slower turnover)
Conditions: genetic background: wild type; temperature: 30 C
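Note: PSI is a weighted mean of sequencing reads over stability bins, variants kept only with over 10 reads, mCherry proximal and sfGFP distal, peptide attached via GGGS linker.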

Sequence	protein stability index
VLDVRLGGRCGE	0.702 ± 0.072
VLEKFFFGLAIL	0.569 ± 0.014
VLFLGVRCSCLG	0.533 ± 0.014
VLFLVGLCRDFA	0.553 ± 0.036
VLFSRFVFLGVL	0.528 ± 0.0095
VLHQWWCIGLGC	0.736 ± 0.013
VLKVFIRERRVR	0.703 ± 0.081
VLLYSGVVKFLQ	0.586 ± 0.021
VLMSCLFFGIRY	0.54 ± 0.044
VLPAWSGTHFVG	0.714 ± 0.017
VLPKQVSEALTL	0.612 ± 0.024
VLPPLSALAPFD	0.764 ± 0.029
VLQSTTNPPTSW	0.631 ± 0.05
VLRFHIRRTQQQ	0.707 ± 0.012
VLRSPHYRPRRE	0.673 ± 0.055
VLSDFSFPFFVL	0.669 ± 0.017
VLSVLGLGFWGG	0.8042 ± 0.0076
VLTGQQSVFGAK	0.752 ± 0.096
VLVSGRCCRCGF	0.701 ± 0.048
VMLGGWRVPGER	0.7754 ± 0.0033
VMNGGCFGWAVG	0.628 ± 0.058
VMPSICTKYGVN	0.717 ± 0.13
VMVNTAWERRKR	0.673 ± 0.065
VMYLSGCFHSQI	0.659 ± 0.059
VNILKRQKRARG	0.72 ± 0.052

Sequence	protein stability index
VNQSCPRPTPFV	0.67 ± 0.051
VNTPGVDSDPVA	0.661 ± 0.11
VPACFSYFLASC	0.68 ± 0.04
VPCILLFSHFKH	0.619 ± 0.042
VPCPPRRLAPRG	0.582 ± 0.015
VPDGPAHIPLPL	0.683 ± 0.065
VPDGVAGRRPDR	0.679 ± 0.056
VPLIFSTFVSIS	0.54 ± 0.009
VPLSPPRTPTLY	0.648 ± 0.12
VPPALPRSPGPP	0.72 ± 0.069
VPPGVVSSPCPN	0.661 ± 0.056
VPPHPFFPLPPP	0.788 ± 0.099
VPPKHLYPLPPP	0.612 ± 0.007
VPPPALPPCPAF	0.723 ± 0.037
VPPPRLCPERPH	0.719 ± 0.063
VPPRPAPRLRPP	0.695 ± 0.07
VPRAPSPCPVSL	0.71 ± 0.046
VPRSSGAILGFL	0.637 ± 0.015
VPSGTHHPFTLS	0.751 ± 0.02
VPSLRSTLPPPL	0.731 ± 0.051
VPTCFPLSPSPP	0.714 ± 0.016
VPTLCDQVFLFA	0.627 ± 0.0086
VPVGSWVGIGGK	0.692 ± 0.043
VPVSNLCERTAG	0.648 ± 0.011
VQCRIREELWGG	0.6919 ± 0.0047

Sequence	protein stability index
VQGGRNGEGGRG	0.651 ± 0.081
VQIALTLNSPSL	0.605 ± 0.058
VQLSISCEPPSN	0.7391 ± 0.007
VQMKVKKRLNEW	0.6744 ± 0.0046
VQYITSGASRWG	0.6309 ± 0.00084
VRAVGSIILPPG	0.6558 ± 0.00093
VRCAAIKLIGRI	0.675 ± 0.051
VRCKGLGLAVCA	0.541 ± 0.062
VRCWGRGSGVGD	0.666 ± 0.036
VREILKDGIFDP	0.717 ± 0.043
VRERGAGAVAGS	0.715 ± 0.044
VRERVRRWVGDG	0.5752 ± 0.0053
VRGGGRARRRGS	0.7347 ± 0.0044
VRGKSARRSSRR	0.665 ± 0.029
VRISGLSALPHF	0.70793 ± 9.5e-05
VRLMARFESFLW	0.69 ± 0.023
VRPLPAPVQPHP	0.741 ± 0.019
VRPYPGDDVSWR	0.693 ± 0.061
VRRGVGAVVFGG	0.655 ± 0.08
VRRRLRLFLMWG	0.588 ± 0.0052
VRRVHAMVLLGG	0.65 ± 0.014
VRTLVGQVWETV	0.721 ± 0.031
VRVALISDRGKQ	0.738 ± 0.025
VSADGAGCAVRG	0.709 ± 0.052
VSAYLKNSGYRE	0.6955 ± 0.0061

Sequence	protein stability index
VSAYWFLLFGSV	0.662 ± 0.13
VSCHSPPVPHDP	0.702 ± 0.011
VSCVRGFFLFPC	0.699 ± 0.022
VSEEFAGSGTKS	0.67 ± 0.064
VSFPHSRLSLTI	0.747 ± 0.02
VSFSSLLRFCRG	0.671 ± 0.0091
VSGDLRRWRNSE	0.673 ± 0.043
VSGEGRGRTTPD	0.665 ± 0.013
VSGFVAALRIFL	0.657 ± 0.025
VSGGGEWRDAYG	0.677 ± 0.04
VSGMRRRFGNRL	0.756 ± 0.11
VSHVRVNESAAN	0.677 ± 0.0078
VSKVGDMNSGSK	0.651 ± 0.013
VSLGALFEFRAA	0.745 ± 0.015
VSLSSLPRRFSP	0.75 ± 0.04
VSNIVGRSLSCR	0.688 ± 0.014
VSNVSDSGHPYL	0.6777 ± 0.0021
VSRHRRLAGMIW	0.735 ± 0.018
VSRPPPRNPTPP	0.728 ± 0.078
VSSVSLRVRVLF	0.564 ± 0.08
VSVFRFALGLQV	0.563 ± 0.0058
VSVGVPGWYGMI	0.6336 ± 0.0049
VSVWLGSARWVG	0.628 ± 0.0086
VSWRGSFQGIYG	0.685 ± 0.043
VSYLAQSFLPNL	0.69928 ± 9.6e-05

Sequence	protein stability index
VSYRLDMHFLYY	0.6062 ± 0.0046
VTISLGGGGGMQ	0.684 ± 0.12
VTISLGVGGGMQ	0.725 ± 0.048
VTRGGKLRRGRV	0.638 ± 0.089
VTRRIPPRGGPR	0.72 ± 0.074
VVCFGNFGGVRV	0.778 ± 0.049
VVGAALRDGPRE	0.71 ± 0.012
VVGAIRWGGGRR	0.705 ± 0.014
VVGAVSASLAGV	0.662 ± 0.056
VVGGGDWRWGVW	0.7709 ± 0.0046
VVGNGGWVEGEV	0.621 ± 0.13
VVGSAGGGGFVL	0.6717 ± 0.0065
VVGSVPVSAFWE	0.746 ± 0.075
VVGSWGRGGCGG	0.639 ± 0.0017
VVGVCLDIVCSP	0.519 ± 0.013
VVGWSSGVVEVA	0.688 ± 0.035
VVHECIGVYGTV	0.634 ± 0.017
VVLFCPFISSED	0.726 ± 0.012
VVLGQGRGVGAM	0.669 ± 0.012
VVPSLLVLPFFC	0.51 ± 0.01
VVRLEGGSGAVW	0.703 ± 0.0085
VVRLGGVSWAGG	0.649 ± 0.016
VVRLGLVSGCGG	0.581 ± 0.013
VVRMFRLGNGNF	0.7 ± 0.0083
VVRQADVLLGLV	0.662 ± 0.019

Sequence	protein stability index
VVSLPITGTVTL	0.722 ± 0.029
VVSSFVCLLRRG	0.654 ± 0.055
VVVGGVGGFFGC	0.754 ± 0.015
VVVGQGPLRGGA	0.714 ± 0.021
VVVIGVWGGGVG	0.612 ± 0.019
VVVRVAEGGGRW	0.666 ± 0.047
VVWCSWGFLFSA	0.625 ± 0.042
VWCVWGVGGLWA	0.648 ± 0.025
VWGGGGVTVWLV	0.6149 ± 0.0054
VWGGGSWGGCGG	0.744 ± 0.082
VWGWGSWGGCGG	0.705 ± 0.066
VWHWGRSLYLAA	0.525 ± 0.021
VWRGGGVRLGRL	0.75 ± 0.046
VWSWGEGGGAVV	0.7 ± 0.035
VWVCGLGGGVLG	0.777 ± 0.021
VYGRRNVRLNIV	0.582 ± 0.068
VYGVVVWLFGFL	0.678 ± 0.0095
VYHCRLSQHRTL	0.717 ± 0.034
VYSSVPGRIAID	0.708 ± 0.008
VYYDERLGDGHS	0.866 ± 0.021
WAGGGVWRVGGR	0.715 ± 0.042
